Data from patent publication US8143025B2, “Antibodies against vascular endothelial growth factor receptor-1” (ImClone LLC, priority 2004, dated 2012).

Tests used:
[1] = molecular target: human VEGFR-2 alkaline phosphatase (Homo sapiens, UniProt P35968); experiment: ELISA-based specificity assay (Example 2A); assay type: binding; conditions: FIG. 6C
Description: (§1) To determine the specificity of an anti-VEGFR-1 monoclonal antibody to human VEGFR-I, purified antibodies 18F1 were tested in an ELISA-based assay. One μg/ml of recombinant human VEGFR-I Fc, mouse VEGFR-I Fc, mouse VEGFR-2 Fe, or human VEGFR-2 alkaline phosphatase was coated with PBS in a 96-well microtiter plates at 4° C. over night. After wash, the receptor coated plates were blocked with PBS containing 5% Dry Milk and 0.05% Tween 20. Serial dilutions of primary antibody 18F1 to human VEGFR-I, MF1 to mouse VEGFR-I. ICl 1 to human VEGFR-2, or DClOl to mouse VEGFR-2 were incubated in the receptor-coated plates for 30 minutes. After wash secondary anti-primary HRP conjugate antibodies was incubated in the plates for 30 minutes. Plates were washed and incubated with the substrate TMB (3,3′,5,5′-tetra-methylbenzidine) for color development. The absorbance at 450 nm was read as OD values for quantification of binding activity of antibodies. Data were analyzed using a GraphPad Prism Software.

mouse VEGFR-2 = mouse VEGFR-2 (Mus musculus, UniProt P35918); experiment: ELISA-based specificity assay (Example 2A); assay type: binding; conditions: FIG. 6D
mouse VEGFR-2, sequence (P35918 20-762 limits assumed): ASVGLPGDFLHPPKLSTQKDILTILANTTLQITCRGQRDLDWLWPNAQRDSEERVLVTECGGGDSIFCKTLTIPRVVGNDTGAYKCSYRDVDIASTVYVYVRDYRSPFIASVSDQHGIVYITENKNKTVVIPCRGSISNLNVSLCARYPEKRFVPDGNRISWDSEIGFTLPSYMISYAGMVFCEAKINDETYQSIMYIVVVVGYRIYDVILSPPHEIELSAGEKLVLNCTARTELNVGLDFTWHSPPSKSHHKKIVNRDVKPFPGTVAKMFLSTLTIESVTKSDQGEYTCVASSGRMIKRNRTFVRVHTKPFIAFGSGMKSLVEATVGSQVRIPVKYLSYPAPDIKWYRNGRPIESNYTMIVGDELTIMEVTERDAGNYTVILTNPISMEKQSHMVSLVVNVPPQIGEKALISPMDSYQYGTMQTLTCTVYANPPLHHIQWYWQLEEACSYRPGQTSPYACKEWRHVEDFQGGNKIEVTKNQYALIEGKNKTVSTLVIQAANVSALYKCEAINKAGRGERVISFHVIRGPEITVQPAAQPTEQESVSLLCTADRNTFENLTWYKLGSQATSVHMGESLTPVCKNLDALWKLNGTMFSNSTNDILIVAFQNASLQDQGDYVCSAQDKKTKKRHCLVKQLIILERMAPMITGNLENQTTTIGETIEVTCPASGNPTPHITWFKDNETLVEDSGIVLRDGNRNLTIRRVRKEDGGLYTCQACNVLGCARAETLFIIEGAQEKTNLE
Description: as §1

mouse VEGFR-I Fc = molecular target: T1, mouse VEGFR-I Fc (Mus musculus, UniProt P35969); experiment: ELISA-based specificity assay (Example 2A); assay type: binding; conditions: FIG. 6B
T1 sequence (P35969 23-759 limits assumed): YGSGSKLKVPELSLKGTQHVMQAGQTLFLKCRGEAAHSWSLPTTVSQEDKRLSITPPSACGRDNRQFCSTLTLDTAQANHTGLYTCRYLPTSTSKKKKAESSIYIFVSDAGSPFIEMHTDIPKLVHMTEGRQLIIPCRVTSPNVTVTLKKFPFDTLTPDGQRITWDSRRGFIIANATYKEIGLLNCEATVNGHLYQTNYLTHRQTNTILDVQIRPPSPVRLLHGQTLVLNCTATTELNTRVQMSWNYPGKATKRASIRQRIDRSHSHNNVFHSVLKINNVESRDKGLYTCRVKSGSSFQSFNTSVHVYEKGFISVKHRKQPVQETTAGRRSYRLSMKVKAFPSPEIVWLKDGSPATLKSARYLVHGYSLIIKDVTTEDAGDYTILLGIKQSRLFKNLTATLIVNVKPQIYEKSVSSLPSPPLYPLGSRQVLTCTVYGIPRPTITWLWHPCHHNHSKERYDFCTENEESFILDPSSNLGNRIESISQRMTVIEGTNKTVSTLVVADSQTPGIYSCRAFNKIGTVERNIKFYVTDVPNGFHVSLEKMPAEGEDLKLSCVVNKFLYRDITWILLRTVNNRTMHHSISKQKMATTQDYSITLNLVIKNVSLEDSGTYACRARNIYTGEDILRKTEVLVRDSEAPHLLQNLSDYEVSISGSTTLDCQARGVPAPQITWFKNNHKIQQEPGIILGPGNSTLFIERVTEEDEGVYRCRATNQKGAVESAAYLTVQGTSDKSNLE
Description: as §1

[2] = molecular target: T2, recombinant human VEGFR-I Fc (Homo sapiens, UniProt P17948); experiment: ELISA-based specificity assay (Example 2A); assay type: binding; conditions: FIG. 6A
T2 construct: soluble recombinant VEGFR-I Fc (rhuVEGFR-1 Fc) proteins were purchased from (R&D Systems Inc); purchased R&D Systems Inc
T2 sequence (P17948 27-758 limits assumed): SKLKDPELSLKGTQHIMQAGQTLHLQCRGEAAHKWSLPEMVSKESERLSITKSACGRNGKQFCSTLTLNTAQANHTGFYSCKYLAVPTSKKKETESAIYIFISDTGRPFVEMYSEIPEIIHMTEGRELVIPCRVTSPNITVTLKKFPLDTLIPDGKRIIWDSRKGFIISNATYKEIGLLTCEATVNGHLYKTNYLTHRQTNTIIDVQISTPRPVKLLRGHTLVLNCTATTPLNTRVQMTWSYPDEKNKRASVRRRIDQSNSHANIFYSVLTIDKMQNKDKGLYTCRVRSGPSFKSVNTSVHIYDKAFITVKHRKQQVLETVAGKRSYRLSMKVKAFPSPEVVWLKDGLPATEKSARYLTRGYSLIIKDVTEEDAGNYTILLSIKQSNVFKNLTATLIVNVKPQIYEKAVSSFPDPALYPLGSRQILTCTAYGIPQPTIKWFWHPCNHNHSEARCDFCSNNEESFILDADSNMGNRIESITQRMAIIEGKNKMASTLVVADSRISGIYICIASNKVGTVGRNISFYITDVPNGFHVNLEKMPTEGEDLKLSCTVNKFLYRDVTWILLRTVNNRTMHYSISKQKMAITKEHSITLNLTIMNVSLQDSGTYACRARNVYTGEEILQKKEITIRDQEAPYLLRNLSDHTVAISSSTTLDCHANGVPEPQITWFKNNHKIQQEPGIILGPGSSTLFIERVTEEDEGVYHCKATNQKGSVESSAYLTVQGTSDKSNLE
Description: as §1

[3] = molecular target: T3, VEGFR-I on PAE-VEGFR-I expressing cells (Homo sapiens, UniProt P17948); experiment: Surface VEGFR-I blocking assay (125I-VEGF); assay type: binding; conditions: porcine aorta endothelial cells, FIG. 9
T3 construct: host or cells: porcine aorta endothelial (PAE) cells
T3 sequence (P17948 27-1338): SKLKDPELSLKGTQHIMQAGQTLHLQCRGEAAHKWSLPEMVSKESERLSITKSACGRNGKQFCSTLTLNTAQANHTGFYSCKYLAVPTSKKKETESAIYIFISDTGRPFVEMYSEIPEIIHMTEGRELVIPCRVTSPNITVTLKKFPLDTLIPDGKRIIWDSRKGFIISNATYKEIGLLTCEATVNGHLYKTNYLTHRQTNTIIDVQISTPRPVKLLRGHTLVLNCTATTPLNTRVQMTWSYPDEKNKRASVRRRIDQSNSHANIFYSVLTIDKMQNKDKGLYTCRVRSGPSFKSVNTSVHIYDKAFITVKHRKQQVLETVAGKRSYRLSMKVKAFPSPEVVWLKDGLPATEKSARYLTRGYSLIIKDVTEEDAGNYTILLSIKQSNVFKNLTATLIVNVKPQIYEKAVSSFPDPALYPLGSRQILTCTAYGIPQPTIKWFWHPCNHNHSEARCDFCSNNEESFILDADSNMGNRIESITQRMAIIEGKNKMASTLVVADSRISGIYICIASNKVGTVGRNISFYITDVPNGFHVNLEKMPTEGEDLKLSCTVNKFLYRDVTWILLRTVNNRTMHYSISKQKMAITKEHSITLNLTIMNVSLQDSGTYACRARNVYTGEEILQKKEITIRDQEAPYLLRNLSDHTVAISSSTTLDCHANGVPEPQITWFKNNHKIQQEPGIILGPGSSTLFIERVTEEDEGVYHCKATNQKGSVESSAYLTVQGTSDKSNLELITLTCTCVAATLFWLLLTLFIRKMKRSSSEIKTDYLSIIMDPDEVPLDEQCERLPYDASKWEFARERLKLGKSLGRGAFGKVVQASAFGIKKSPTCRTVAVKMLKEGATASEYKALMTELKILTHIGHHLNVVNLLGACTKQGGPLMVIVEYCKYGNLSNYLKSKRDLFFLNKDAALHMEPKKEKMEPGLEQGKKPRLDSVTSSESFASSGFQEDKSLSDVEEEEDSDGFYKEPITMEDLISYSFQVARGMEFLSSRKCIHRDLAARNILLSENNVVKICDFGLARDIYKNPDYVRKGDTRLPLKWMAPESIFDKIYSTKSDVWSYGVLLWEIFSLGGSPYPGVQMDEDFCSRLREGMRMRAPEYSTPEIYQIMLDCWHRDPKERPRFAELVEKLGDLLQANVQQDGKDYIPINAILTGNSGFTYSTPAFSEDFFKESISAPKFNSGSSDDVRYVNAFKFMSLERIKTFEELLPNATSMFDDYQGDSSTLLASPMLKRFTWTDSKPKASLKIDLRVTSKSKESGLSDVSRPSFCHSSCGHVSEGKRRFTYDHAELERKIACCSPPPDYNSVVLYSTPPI
Description: The binding of ^125I-VEGF to VEGFR-I on cell surface was performed using PAE-VEGFR-I expressing cells. […] Confluent cells were incubated in serum- and growth supplement-free Dulbecco's Modified Eagle Medium (DMEM)ZF-12 medium (Invitrogen, Carlsbad, Calif.) for 24 hours. Cells were rinsed once with ice-cold DMEMZF-12 medium containing 0.025 M HEPES and 1 mgZml bovine serum albumin (BSA). A serial dilution of anti-VEGFR-I antibody 18F1 or cold VEGF at the concentration of a 200-fold molar excess of labeled VEGF was added to each well in the plate and incubated at 4° C. for 1 hour. After wash, ^125I-VEGF was added at the concentration of 2 ngZml and was incubated at 4° C. for 2 hours on a platform shaker. The cells were washed three times with PBS containing 1 mgZml BSA and 0.25 mM CaCl2, and were incubated for 5 minutes in the presence of 1% Triton X-100, 1 mgZml BSA, and 0.16% NaN3 to remove bound VEGF. The soluble content of each well was counted in a gamma counter. The assays were performed in triplicate in at least three independent experiments and the data were analyzed using Prism GraphPad software 3.03.

[4] = system: HT-29 human colon carcinoma cells; experiment: Soft agarose colony formation; assay type: cell-based; conditions: 66 nM antibody, 10 ng/mL VEGF-A or 50 ng/mL VEGF-B, 14 days, p<0.03
Description: One mL DMEM medium containing 10% FBS and 1% agarose (Cambrex Corporation, East Rutherford, N.J.) was plated in each well of six well plates. HT-29 human colon carcinoma cells in serum free medium were treated with 66 nM 18F1 or control IgG for 1 hour and followed by treatment with 10 ng/mL VEGF-A or 50 ng/mL VEGF-B for additional 4 hours. The treated cells were mixed with 1 mL 10% FBS DMEM containing 0.5% agarose and the appropriate antibodies and/or ligands. One mL of this suspension, containing 250 cells, was plated in each well on top of the 1% agarose base layer. After 2 days, additional medium containing antibodies and/or ligands was added to the wells to keep the agarose hydrated. Cells were allowed to grow for 14 days at 37° C. Afterwards, colonies larger than 50 μm in diameter were counted using a dissecting microscope. Statistical analysis was performed using hiStat Statistical Software (V2.03, GraphPad Software, San Diego, Calif.)

human VEGFR-2 alkaline phosphatase, sequence (P35968 20-764 limits assumed): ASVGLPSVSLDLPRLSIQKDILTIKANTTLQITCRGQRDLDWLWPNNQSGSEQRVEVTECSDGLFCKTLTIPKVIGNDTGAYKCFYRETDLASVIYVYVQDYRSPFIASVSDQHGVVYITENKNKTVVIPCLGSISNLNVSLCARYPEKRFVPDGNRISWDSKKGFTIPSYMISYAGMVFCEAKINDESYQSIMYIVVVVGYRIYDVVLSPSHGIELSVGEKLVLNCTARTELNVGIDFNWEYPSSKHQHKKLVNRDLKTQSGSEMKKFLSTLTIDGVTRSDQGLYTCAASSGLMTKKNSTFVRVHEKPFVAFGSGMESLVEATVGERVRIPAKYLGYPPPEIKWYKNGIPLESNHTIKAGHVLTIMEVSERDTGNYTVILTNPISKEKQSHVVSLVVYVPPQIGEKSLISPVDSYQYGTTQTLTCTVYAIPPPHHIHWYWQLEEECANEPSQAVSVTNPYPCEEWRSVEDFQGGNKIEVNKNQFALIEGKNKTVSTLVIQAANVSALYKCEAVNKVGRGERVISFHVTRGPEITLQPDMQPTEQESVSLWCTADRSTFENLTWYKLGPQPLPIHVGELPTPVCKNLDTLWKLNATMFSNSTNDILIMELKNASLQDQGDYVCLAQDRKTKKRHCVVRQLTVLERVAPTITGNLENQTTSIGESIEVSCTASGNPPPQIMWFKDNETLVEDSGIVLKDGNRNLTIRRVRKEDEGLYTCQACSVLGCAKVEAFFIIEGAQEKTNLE

Q: Which results are given for “18F1: human anti-VEGFR-1 monoclonal antibody clone; VL SEQ ID NO: 16, VH SEQ ID NO: 20 [Clone 18F1]”?
A: cross reactivity with human VEGFR-2 [1]: no cross reactivity; cross reactivity with mouse VEGFR-2 (mouse VEGFR-2): no cross reactivity; cross reactivity with mouse VEGFR-I (mouse VEGFR-I Fc): no cross reactivity; binding specificity to human VEGFR-I [2]: binding of human VEGFR-I; blocking of 125I-VEGF binding to native VEGFR-I [3]: strong blocking activity; VEGF-A or VEGF-B induced colony formation [4]: completely suppressed
